Results reported in the nanobody polyreactivity screen of Harvey et al. (2022).

Assay: yeast display, Sf9 membrane polyspecificity reagent, FACS + sequencing; frameworks hold sequencing errors
In short: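 Synthetic nanobody libraries on Saccharomyces cerevisiae BJ5465 were galactose-induced for 36–48 hours, stained 1 hour at 4 °C with 10% biotinylated, detergent-solubilized Sf9 membrane reagent and enriched on streptavidin microbeads. FACS then separated cells into low and high (top ~1%) gates by anti-HA (expression) and streptavidin (reagent binding) fluorescence. Genes were colony-PCR amplified, MiSeq 2 × 250 sequenced and CDR-length filtered. A clone's polyreactivity label is that of its gate of origin.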

| Sequence | polyreactivity (PSR sort gate) |
| --- | --- |
| QVQLVESGGGLVQAGGSLRLSCAASVFIFPHYTMGWYRQAPGKERELVAAISSSGGSTYYADSVKGRFTISRYNAKNTVYLQMNSLKPEDSADYYCPGPLPYYGQYDYWGQGTQVTVSS | low polyreactivity |
| QVQLVESGGGLVQAGGSLRLSCAASGRIYPYYDMGWYRQAPGKERELVAAITSGTGTYYADSGKGRVTLSRDNAKTTVYFQMYSLKPEDTAVYYCNARRYLRGYWGQGTQVTLSS | low polyreactivity |
| QVQLVESGGGLVQAGGSLRLSCAASGITFNIYVMGWYRQAPGKERELVAAITDSGGTTYYADSVKGRFTISRDNAKNTVYLQMNSLKPEDTAVYYCAAEPFYSWWWWGDYWGQGTQVTVSS | high polyreactivity |
| QVQLVESGGGLVQAGGSLRLSCAASGFTFIGYAMGWNRQAPGKERELVADITYSGSSTYYADSVKGRFTISRDNAKNTVYFQMNSLKPEDTAVYYCAAEAYYYWFDVVYWGQGSQVTVSS | low polyreactivity |
| QVQLVESGGGLVQAGGSLRLSCAASGRILPGYAMGWYRQAPGKERELVAAIRGNGDSTYYADSVKGRFTISRDNAKNTVYLQMNSLKPEDTAVYFCAARRVSTIARDSYRGRKYGYWGQGTQVTVSS | low polyreactivity |
| QVQLVESGGGLVQAGGSLRLSCAASGITFGYYAMGWYRQAPGKERELVAAITWSGSSTYYADSVKGRFTISRDNAKNTVYLQMNSLKPEDTAVYYCAAEYSSHYAVWRGHSGYWGQGTQVTVSS | high polyreactivity |
| QVQLVESGGGLVQAGGSLRLSCAASGRIFYTYAMGWYRPAPGKERELVAAITYRGGSTYYADSVKGRFTISRDNAKNTVYLQMNSLKPEDTAVYYCAGRPGRGPDSRWRYKYDYWGQGTQVTVSS | high polyreactivity |
| QVQLVESGGGLVQAGGSLRLSCAASGNIFESYGMGWYRQAPGKERELVATINTSSGSTYYADSVKGRFTISRDNAKNTVYLQMNSLKPEDTAVYYCAVEGDYWYVSMYYWGQGTQVTVSS | low polyreactivity |
| QVQLVESGGGLVQAGGSLRLSCAASGRTFTFNAMGWYRQAPGKERELVAAITRSGGRTYYADSVKGRFTISRDNAKNTVYLQMNSLKPEDTAVYYCAAEWEYSWYDYDYWGQGTQVTVSS | high polyreactivity |
| QVQLVESGGGLVQAGGSLRLSCAASGSTFGYYAMGWYRQAPGKERELVARISGGTRTNYADSVKGRFTISRDNAKNTVYLQMNSLKPEDTAVYYCNAYYYIPFEGRGYSKMDYWGQGTQVTVSS | high polyreactivity |
| QVQLVESGGGLVQAGGSLRLSCAASARIIGTYAMGWYRQATGKERELVAASTRGGTTYYADSVKGRFTISRDNAKNTVYLQMNSLIPEDTAVYYCATGPAIRYDYWGQGTQVTVSS | low polyreactivity |
| QVQLVESGGGLVQAGGSHRISCAASGRTLPSYAMGWYRQAPGKERELVAAISYSGASTYYADSVKGRFTISRDNAKNTVYLQMNSLKPQDTAVYYCAVYRTFRYRYDSWGQGTQVTVSS | high polyreactivity |
| QVQLVESGGGLVQAGGSLRLSCAASGFIFYLYAMGWYRQAPGKEMELVAAISWGGGTTYYADSVKGRFTISRDNAKNTVYLKMNSLKPEDTAVYYCAAETEYYSYRFDYWGQGTQVTVSS | high polyreactivity |
| QVQLVESGGGLVQAGGSLRLSCAASGFTIRYYTMGWYRQAPGKERELVAAITWSGGRTYYADSVKGRFTISRDNAKNTVYLQMNSLKPEDTAVYYCAADVTKRASRDYYWGQGTQVTVSS | high polyreactivity |
| QVQLVESGGGLVQAGGSLRLSCAASGLTFEYYAMGWYRQAPGKERELVAAITSTGSTNYADSVKGRFTISRDNAKNTVYLQMNSLKPEDTAVYFCNAEKPEGSTLYDYDYWGQGTQVTVSS | low polyreactivity |
| QVQLVESGGGLVQAGGSLRLSSAASGITFYGYARGWYRQPPGKEREFVAAISYSGGSTYYADSVKGRFTISRDNAKNTVYLQMNSLKPEDTAVYYCAARVGRSLYGYWGLGTQVTVSS | high polyreactivity |
| QVQLEESGGGLVQAGGSLRLSCPASGRTSYGNTMGTYRQAPGKERELVATISGGGSTNYADSVKGRFTISRDNAKNTVYLQMNSLKPEDTAVYYCAARRYPFPGYRYYFWGQGTQVTVSS | high polyreactivity |
| QVQLVESGGGLVQAGGSLRLSCAASGIIFPYNTMGWYRQAPGKERELVASIDDGGSTNYADSVKGRFTISRDNAKNTVYLQMNSLKPEDTAVYYCNADLFFIYVRQPGYDYWGQGTQVTVSS | low polyreactivity |
| QVQLVESGGGLVQAGGSLRLSCAASGITFSHNAMGWSRPAPGKERELVAVIRWSGGRTYYADSVKGRFTISRDNAKNTVYLQMNSLKPEDTAVYYCAARPSTAFPYGKIMDYWGQGTQVTVSS | low polyreactivity |
| QVQLVESGGGLVQAGGSLRLSCAASGRTFRYYVMGWYRQAPGKERELVAAISRTGGNTYYADSVKGRFTISRDNAKNTVYLQMNSLKPEDTAVYYCNTVRRPSSWRYDYWGQGTQVTVSS | high polyreactivity |
| QVQLVESGGGLVQAGGSLRLSCAASGSTFTYYAMGWYRKAPGKETELVAAIDFSGTSTYYADSVKGRFTISRDNAQNTVYLKMNSLKPEDTSVYYCAASQSWYWGGAHDNGEFGYWGQGTQVTVSS | low polyreactivity |
| QVQHVESGGGLVQAGGSLRLSCAASGSTFYFYTMGWYRQAPGKERELVAAITYSGGSTYADSVKGRFTISRDNAKNTDYLQMNSLKPEDTAVYYCAAASYFYLYLLEDYWGQGTQVTVSS | low polyreactivity |

| Sequence | polyreactivity (PSR sort gate) |
| --- | --- |
| QVQLVESGGGLVQAGGSLRLSCAASGINLFYYAMGWYIQAPGKETDFVAAISWSGGSTYYADSVKGRFTISRDNAQNTVYLQMNSLKPEDTALYYCAAKWYSYRWTQFDYWGQGTQVTVSS | high polyreactivity |
| QVQLVESGGGLVQAGGSLRLSCAASGFIFQYYSMGWYRQAPGKERELVATITSRGGSTYYADSVKGRFTISRDNAKNTVYLQMNSLKPEDTAFYYCNARSSSPRKYGYWGQGTQVTVSS | high polyreactivity |
| QVQLVESGGGLVQAGGSLRLSCAASGSIFPLSAMGWYRQAPGKERELVAAITWRGGSTYYADSVKGRFTISRDNAKNTVYLQMNSLKPEDTAVYYCNRDLVPRFDYWGQGTQVTVSS | low polyreactivity |
| QVKLVESGGGLVQAGGSLRLSCAASGNIFRRYTMGWYRQAPGKERELVAAISSGGSTNYADSEKGRFTISRDNAKNTVYLQMNSLKPEDTAVYYCAVSYRSFRYYWERYYSWGQGTQVTVSS | high polyreactivity |
| QVQLVESGGGLVQAGGSLRLSCAASGSIVAGYAMGWYRQAPGKEREMVAAISDSGGNTYYADSVKGRFTISRDNAKNTVYLQMNSLKPEDTAVYYCAADLGYGPLRELEYWGQGTQVTVSS | low polyreactivity |
| QVQLVESGGGLVQAGGSLRLSCAASGYIFNYAMGWYRQAPGKERQLVAAISRRGGSTYYADSVKGRFTISRDNAKNTVYLQMISLKPEDTAVYYCADRLPGYYGIGDYWGQGSQVTVSS | high polyreactivity |
| QVQLVESGGGLVQAGGSLRLSCAASGSTFVSYAMGWYRQAPGKERELVAAISISDSSTYYADSVKGRFTISRDNAKKTVYLQMNSLKPEDTAVYYCNRYDYWGQGTQVTVSS | low polyreactivity |
| QVQLVESGGGLVQAGGSLRLSCAASGRIFPKNAMGWYRQAPGTERELVAAISSGGRTKYADSVKGRFTISRDNAKNTVYLQMNSLKPEDTAVYYCAAYFVSKTGGYYYWGQGTQVSVSS | high polyreactivity |
| QVQLVESGGGLVQAGGSLRLSCAASGFTFYLYTMGWYRQAPGKERELVATITSDGGTNYADSVKGRFTISRDNAKNTVYLQMNSLKPEDTAVYYCNAASRRGSRKQAKYDFWGQGTQVTVSS | low polyreactivity |
| QVQLVESGGGLVQAGGSLRLSCAASGFIIPGYAMGWYRQAPGKERELVAAISSGTSTYYADSVKGRFTISRDNAKNTVYLQMNSLKPEATAVYYCAADTWYRFGYWGQGTQVTVSS | low polyreactivity |
| QVQLVESGGGLVQAGGSLRLSCAASGRTFASNAMGCYRQAPGKERELVAAITISGGRTYYADSVKGRFTISRDNAKNTVYLQMNSLKPEDTAVYYRAAAKHSWRPSYYWGGYWGQGTQVTVSS | low polyreactivity |
| QVQLVESGGGLVQAGGSLRLSCAASGIIFGYYAMGWYRQAPGKERELVATINWDGGSTYYADSVKGRFTISRDNAKNTVYLQMNSLKPEDTAVYYCAAAKPVQYRIAQAHVGYWGQGTQVTVSS | low polyreactivity |
| QVQLVESGGGLVQAGGSLRLICAASGFIFVYYVMGWYRQAPGKERELVAAITQSGGSTYYADSVKGRFTISRDNAKNTVYLQMNSLKPEDTAVYYCAAYRRTTGGGYDYWGQGTQVTVSS | high polyreactivity |
| QVQLVESGGGLVQAGGSLRLSCAASGRIILLYTMGWYRQAPGKERELVAAISRSGGITYADSVKGRFTISRDNAKNTVYLQMNSLKPEDTAVYYCAKGGSSHAKGHFDYWGQGTQVTVSS | low polyreactivity |
| QVQLVESGGGLVQAGGSLRLSCAASGFIFKRYAMGWYRQAPGKERELVATISNSGGRTYYADSVKGRFTISRDNAKNTVYLQINSLKPEDTAVYYCDALPFWWGGYWGQGTQVTVSS | high polyreactivity |
| QVQLVESGGGLVQAGGSLRLSCAASGRIFIGNAMGWYRQAPGKERELVAAISKRGGSTYYADSVKGRFTISRDNAKNTVYLQMNSLKPEDTAVYYCNKESLYREFDYWGQGTQVTVSS | low polyreactivity |
| QVQLVESGGGLVQAGGSLRLSCAASGSTFYHNVMGWYRQAPGKERELVASIYRGGSTYYADSVKGRFTISRDNAKNTVYLQMNSLKPEDTAVYYCAKEYKSLWWDGRMNYWGQGTQVTVSS | low polyreactivity |
| QVQLVESGGGLVQAGGSLRLSCAASGSTLEYYAMGWYRQAPGKERELVAAITYSGGDTYYADSVKGRFTISRDNAKNTVYLQMNSLKPEDTAVYYCAAEALYYPYETYDYWGQGTQVTVSS | high polyreactivity |
| QVQLVESGGGLVEAGGSLRLSCAASGRIFGRNAMGWYRQAPGKERELVAGISSGGTTDYADSVKGRFTISRDNAKNTVYLQMNSLKPEDTAVYYCNVGYAYDDQTYYLGESDYWGQGTQVTVSS | low polyreactivity |
| QVQLVESGGGLVQAGGTLRLSCAASGFIFRKYGMGWYRQAPGKERELVAAIRFTGGSTRYADSVKGRFTISRDNAKNTVYLQMNSLKPEDTAVYYCNADRVYVRGRFTYDYWGQGTQVTVSS | low polyreactivity |
| QVQLVESGGGLVQAGGSLRLSCAASGGILNYYAMGWYRQAPGKERELVAAITGIGGSTSYADSVKGRFTISRDNAKNTVYLQMNSLKPEDTAVYYCAAEATSSYYVPDYDYWGQGTQVTVSS | low polyreactivity |
